This passage reports stoichiometry N results from paper PMC8299537.

For the experiment, the target named is DPP9, short isoform (His-TEV-DPP9), co-purified with NLRP1ΔΔ (human), Q86TI2. The experiment in a line: cryo-EM structure. The settings on record: remark: other sources report otherwise.

B1: DPP9, short isoform (His-TEV-DPP9), co-purified with NLRP1ΔΔ, Q86TI2-1 1-863 (enzyme)
chain: MATTGTPTADRGDAAATDDPAARFQVQKHSWDGLRSIIHGSRKYSGLIVNKAPHDFQFVQKTDESGPHSHRLYYLGMPYGSRENSLLYSEIPKKVRKEALLLLSWKQMLDHFQATPHHGVYSREEELLRERKRLGVFGITSYDFHSESGLFLFQASNSLFHCRDGGKNGFMVSPMKPLEIKTQCSGPRMDPKICPADPAFFSFINNSDLWVANIETGEERRLTFCHQGLSNVLDDPKSAGVATFVIQEEFDRFTGYWWCPTASWEGSEGLKTLRILYEEVDESEVEVIHVPSPALEERKTDSYRYPRTGSKNPKIALKLAEFQTDSQGKIVSTQEKELVQPFSSLFPKVEYIARAGWTRDGKYAWAMFLDRPQQWLQLVLLPPALFIPSTENEEQRLASARAVPRNVQPYVVYEEVTNVWINVHDIFYPFPQSEGEDELCFLRANECKTGFCHLYKVTAVLKSQGYDWSEPFSPGEDEFKCPIKEEIALTSGEWEVLARHGSKIWVNEETKLVYFQGTKDTPLEHHLYVVSYEAAGEIVRLTTPGFSHSCSMSQNFDMFVSHYSSVSTPPCVHVYKLSGPDDDPLHKQPRFWASMMEAASCPPDYVPPEIFHFHTRSDVRLYGMIYKPHALQPGKKHPTVLFVYGGPQVQLVNNSFKGIKYLRLNTLASLGYAVVVIDGRGSCQRGLRFEGALKNQMGQVEIEDQVEGLQFVAEKYGFIDLSRVAIHGWSYGGFLSLMGLIHKPQVFKVAIAGAPVTVWMAYDTGYTERYMDVPENNQHGYEAGSVALHVEKLPNEPNRLLILHGFLDENVHFFHTNFLVSQLIRAGKPYQLQIYPNERHSIRCPESGEHYEVTLLHFLQEYL
The stoichiometry N is a count of units in the complex or per binding partner. Consider B1, for which the stoichiometry N came out at 2.
